# Data published in article PMC12494784 (Nature Communications, 2025).
# Columns and labels:
# calmodulin = calmodulin (UniProt P0DP23); test: cryo-EM structure
# cryo-EM structure = target: the molecule itself; test: cryo-EM structure
binding result (calmodulin),Binder,stoichiometry N (cryo-EM structure)
binds,"truncated Xenopus laevis KCNQ1 (residues 67-610), wild type (domain or fragment) ATDPPRPTINLDPRVSIYSGRRPLLSRTNIQGRVYNFLERPTGWKCFVYHFTVFLIVLICLIFSVLSTIQQYNNLATETLFWMEIVLVVFFGAEYVVRLWSAGCRSKYVGVWGRLRFARKPISVIDLIVVVASVIVLCVGSNGQVFATSAIRGIRFLQILRMLHVDRQGGTWRLLGSVVFIHRQELITTLYIGFLGLIFSSYFVYLAEKDAIDSSGEYQFGSYADALWWGVVTVTTIGYGDKVPQTWIGKTIASCFSVFAISFFALPAGILGSGFALKVQQKQRQKHFNRQIPAAASLIQTAWRCYAAENPDSATWKIYIRKQSRNHHLMSPSPKPKKSAMVKKKKIRTERDEGSTDKMLNIPHITYDHVADDRKNDGYSVESYENTVRKPFGFLDPSTGPFIRTSSFTDDLDMEGDTLLTPITHISELKEHHRAAIKVIRRMQYFVAKKKFQQARKPYDVRDVIEQYSQGHLNLMVRIKELQRRLDQSLGKPSLFLSVSDKVKDKGINTIGSRLNRVEDKVTQMDHKLNLITDMLHHLLTNQQ",4
binds,Xenopus KCNQ1 E150R/R221E (residues 67-610) (domain or fragment) ATDPPRPTINLDPRVSIYSGRRPLLSRTNIQGRVYNFLERPTGWKCFVYHFTVFLIVLICLIFSVLSTIQQYNNLATETLFWMRIVLVVFFGAEYVVRLWSAGCRSKYVGVWGRLRFARKPISVIDLIVVVASVIVLCVGSNGQVFATSAIRGIEFLQILRMLHVDRQGGTWRLLGSVVFIHRQELITTLYIGFLGLIFSSYFVYLAEKDAIDSSGEYQFGSYADALWWGVVTVTTIGYGDKVPQTWIGKTIASCFSVFAISFFALPAGILGSGFALKVQQKQRQKHFNRQIPAAASLIQTAWRCYAAENPDSATWKIYIRKQSRNHHLMSPSPKPKKSAMVKKKKIRTERDEGSTDKMLNIPHITYDHVADDRKNDGYSVESYENTVRKPFGFLDPSTGPFIRTSSFTDDLDMEGDTLLTPITHISELKEHHRAAIKVIRRMQYFVAKKKFQQARKPYDVRDVIEQYSQGHLNLMVRIKELQRRLDQSLGKPSLFLSVSDKVKDKGINTIGSRLNRVEDKVTQMDHKLNLITDMLHHLLTNQQ,
